Assay results reported in the supplement of paper PMC9876800.

Test system: peptide library, one residue held at a place counted from the S/T acceptor
Assay: relative phosphorylation of the sub-library (ratio to the mean residue at this position); higher = residue favoured
How it was run: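 Human or orthologue kinase constructs, purified and recombinant, were incubated under kinase-specific conditions in 384-well plates with biotinylated degenerate peptide sub-libraries. Each sub-library fixed one residue at one position around a central Ser/Thr. Incubations lasted 90 min with peptides at 50 μM and 50 μM ATP spiked with γ-32P-ATP, after which spots on streptavidin membranes were phosphorimaged and quantified by densitometry. Relative sub-library phosphorylation is a ratio to the mean residue at that position.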

Sequence of MAP3K7, construct: aa1-303, human (O43318 1-303, looked up): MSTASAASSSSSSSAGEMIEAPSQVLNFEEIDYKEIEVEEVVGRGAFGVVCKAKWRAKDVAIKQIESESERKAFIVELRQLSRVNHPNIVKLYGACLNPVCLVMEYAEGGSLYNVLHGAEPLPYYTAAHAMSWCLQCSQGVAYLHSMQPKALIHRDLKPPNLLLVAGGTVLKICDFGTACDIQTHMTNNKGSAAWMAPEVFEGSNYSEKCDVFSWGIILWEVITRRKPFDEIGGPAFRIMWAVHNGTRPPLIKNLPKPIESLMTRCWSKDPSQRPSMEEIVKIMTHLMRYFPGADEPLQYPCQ
Sequence of CLK4, construct: aa128-481, human (Q9HAZ1 128-481, looked up): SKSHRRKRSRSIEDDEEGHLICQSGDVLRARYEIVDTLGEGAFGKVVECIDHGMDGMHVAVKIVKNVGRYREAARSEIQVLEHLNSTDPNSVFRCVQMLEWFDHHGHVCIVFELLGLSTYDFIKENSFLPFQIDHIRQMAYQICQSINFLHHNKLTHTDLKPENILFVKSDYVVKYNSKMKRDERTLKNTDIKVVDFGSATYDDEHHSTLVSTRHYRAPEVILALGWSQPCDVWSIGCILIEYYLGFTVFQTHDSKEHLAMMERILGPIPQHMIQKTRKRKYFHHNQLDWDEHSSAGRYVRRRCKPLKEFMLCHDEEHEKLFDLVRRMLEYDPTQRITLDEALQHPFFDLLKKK

MAP3K7, construct: aa1-303, human (from UniProt O43318)
relative phosphorylation
Conditions | at +1 | at +2 | at +3 | at +4 | at -1 | at -2 | at -3 | at -4 | at -5
A fixed | 0.455 | 0.709 | 0.902 | 0.855 | 0.708 | 0.979 | 1.18 | 0.95 | 1.05
D fixed | 0.391 | 1.03 | 0.996 | 0.885 | 1.18 | 0.533 | 0.857 | 1.69 | 1.56
E fixed | 0.668 | 0.547 | 0.878 | 0.898 | 0.687 | 0.863 | 0.662 | 1.33 | 1.17
F fixed | 1.44 | 0.608 | 0.93 | 0.735 | 1.01 | 1.14 | 0.818 | 0.938 | 0.891
G fixed | 0.565 | 0.809 | 1.39 | 1.18 | 0.528 | 0.592 | 0.714 | 1.14 | 1.04
H fixed | 0.914 | 1.42 | 1.1 | 1.11 | 1.23 | 1.42 | 1.1 | 1.05 | 1.07
I fixed | 1.41 | 0.623 | 0.714 | 0.921 | 0.888 | 1.2 | 1.14 | 0.872 | 0.781
K fixed | 0.409 | 2.3 | 1.33 | 1.42 | 0.752 | 0.581 | 0.752 | 0.734 | 0.885
L fixed | 2 | 0.608 | 0.821 | 0.949 | 1.57 | 1.01 | 1.13 | 0.834 | 0.77
M fixed | 1.55 | 0.786 | 0.968 | 0.897 | 1.41 | 1.31 | 0.999 | 0.9 | 0.884
N fixed | 2.36 | 1.44 | 1.07 | 0.959 | 1.13 | 0.633 | 0.649 | 0.962 | 0.987
P fixed | 0.206 | 0.741 | 0.892 | 1.29 | 0.348 | 0.537 | 0.854 | 0.807 | 1.06
Q fixed | 1.17 | 0.78 | 0.93 | 0.993 | 0.866 | 0.785 | 0.65 | 0.818 | 0.818
R fixed | 0.597 | 2.39 | 1.33 | 1.29 | 1.02 | 1 | 1.54 | 0.795 | 0.994
V fixed | 0.914 | 0.758 | 0.874 | 0.836 | 0.768 | 1.07 | 1 | 0.934 | 0.894
W fixed | 0.963 | 0.646 | 0.969 | 0.923 | 1.2 | 1.31 | 1.37 | 1.14 | 1.07
Y fixed | 0.979 | 0.804 | 0.903 | 0.866 | 1.7 | 2.04 | 1.58 | 1.11 | 1.08
pThr fixed | 0.898 | 1.36 | 1.33 | 0.99 | 1.03 | 1.41 | 1.53 | 1.4 | 1.14
pTyr fixed | 0.431 | 0.475 | 0.716 | 0.689 | 1.07 | 1.01 | 0.786 | 0.912 | 1.09

CLK4, construct: aa128-481, human (from UniProt Q9HAZ1)
relative phosphorylation
Conditions | at +1 | at +2 | at +3 | at +4 | at -1 | at -2 | at -3 | at -4 | at -5
A fixed | 0.617 | 1.09 | 0.764 | 0.712 | 0.792 | 1.63 | 0.609 | 0.923 | 0.926
D fixed | 0.293 | 0.989 | 0.691 | 1.07 | 0.403 | 0.553 | 0.453 | 0.649 | 0.735
E fixed | 0.565 | 0.943 | 0.592 | 1.1 | 0.48 | 1.52 | 0.374 | 0.721 | 0.595
F fixed | 0.435 | 0.928 | 0.771 | 0.91 | 0.705 | 0.337 | 0.327 | 0.858 | 1.39
G fixed | 0.628 | 1.04 | 0.925 | 0.889 | 0.975 | 0.943 | 0.553 | 1.09 | 1.02
H fixed | 0.7 | 1.28 | 1.1 | 1.06 | 1.18 | 0.546 | 0.709 | 0.979 | 1.05
I fixed | 1 | 0.795 | 0.61 | 0.869 | 0.55 | 0.343 | 0.332 | 0.857 | 0.786
K fixed | 0.807 | 1.36 | 2.5 | 1.26 | 2.09 | 0.978 | 2.16 | 1.72 | 1.47
L fixed | 0.784 | 0.877 | 0.731 | 0.8 | 0.935 | 0.461 | 0.394 | 0.781 | 0.891
M fixed | 0.727 | 0.837 | 0.717 | 1.02 | 1.04 | 0.443 | 0.429 | 0.884 | 0.69
N fixed | 0.498 | 0.804 | 0.822 | 0.935 | 0.865 | 0.42 | 0.476 | 0.807 | 0.881
P fixed | 5.64 | 1.21 | 2.04 | 0.901 | 1 | 0.453 | 0.405 | 0.806 | 0.909
Q fixed | 0.793 | 0.929 | 0.795 | 1.07 | 1.12 | 0.717 | 0.509 | 0.839 | 0.827
R fixed | 0.853 | 1.33 | 1.7 | 1.28 | 2.36 | 6.56 | 8.11 | 2.25 | 1.82
V fixed | 1.59 | 1.04 | 0.67 | 0.772 | 0.704 | 0.386 | 0.331 | 0.755 | 0.771
W fixed | 0.486 | 0.754 | 0.763 | 1.25 | 0.895 | 0.348 | 0.429 | 1.1 | 1.24
Y fixed | 0.574 | 0.792 | 0.8 | 1.1 | 0.89 | 0.356 | 0.399 | 0.973 | 1
pThr fixed | 0.796 | 1.92 | 0.773 | 2.01 | 0.343 | 0.467 | 0.603 | 0.846 | 0.81
pTyr fixed | 0.516 | 0.647 | 1.52 | 1.16 | 0.546 | 0.295 | 0.356 | 0.732 | 0.938
